According to PMC7807036:

Tests used:
[1] = target: T1, thrombin (human) (UniProt P00734+P00734); assay: fibrinogen clotting (light scattering); conditions: Clotting: 20 mM Tris, 150 mM NaCl, 5 mM KCl, 1 mM MgCl2, 1 mM CaCl2, pH 7.4, 12 nM thrombin, 25 C, 5 min; AFM binding conditions not given in the material
[2] = target: T1, thrombin (human); assay: AFM; conditions: Clotting: 20 mM Tris, 150 mM NaCl, 5 mM KCl, 1 mM MgCl2, 1 mM CaCl2, pH 7.4, 12 nM thrombin, 25 C, 5 min; AFM binding conditions not given in the material

Work on “Aptarray (rectangular origami, 36 TBA15 + 36 HD22, 5.4 nm)” yielded a binding signal (% inhibition of thrombin) [1] of 98.3.

In the case of “origami nanostructure IV (9 TBA15 + 9 HD22, ~5.4 nm)”, the binding signal (% of origami with bound thrombin) [2] is reported as 76.
